{"source": "paper PMC6423188", "about": "“HYNIC and DOMA conjugated radiolabeled bombesin analogs as receptor-targeted probes for scintigraphic detection of breast tumor” (EJNMMI Research, 2019)", "key": {"[1]": {"assay": "physchem", "type": "physicochemical", "conditions": "buffer or solvent, pH 7.4", "description": "(§1) In vitro radiochemical stability of ^99mTc-BN1/^99mTc-BN2/^99mTc-BN3 and ^99mTc-BN4, ^99mTc-BNS were assessed by incubating HPLC purified radiopeptides in phosphate buffer saline (PBS at pH 7.4) and freshly collected rat serum for 1–24 h at […]. Then, 90 μL of radiolabeled peptide ^99mTc-BN1/^99mTc-BN2/^99mTc-BN3/^99mTc-BN4/^99mTc-BNS solution were incubated under agitation at 37 °C with either 1.0 mL saline or fresh rat serum, and the mixtures were incubated at 37 °C for 24 h. Samples were periodically withdrawn from the mixture at 0, 2, 4, 6, 8, 12, and 24 h incubation period and analyzed by ITLC. In the case of rat serum, the aliquot was added to 100 μL 50% trifluoroacetic acid (TFA). After centrifugation (3000 rpm), the supernatant was analyzed by ITLC using acetone as the developing solvent; 10 μL of this mixture was taken at each time point, added to a strip ITLC whereby the percentage of ^99mTc-BN1/^99mTc-BN2/^99mTc-BN3/^99mTc-BN4/^99mTc-BNS was determined using gamma counter.\n(§2) In vitro stability of ^99mTc-labeled bombesin analogs incubated at 37 °C with either freshly collected rat serum or normal saline were monitored up to 24 h. […] The new radiolabeled peptide conjugates were stable up to 24 h post labeling period at room temperature, with no observable degradation or transchelation to serum proteins."}, "[2]": {"assay": "Blood clearance studies", "type": "in vivo", "conditions": "mouse, i.v. tail vein", "description": "^99mTc-labeled HYNIC/DOMA conjugated peptide analogs (1 mCi, 0.2 mL) were administered to well-hydrated mouse (n = 3) through tail vein and blood samples (20 μL each) were collected at preset time intervals (2, 5, 15, 30, 60, 90, and 120 min) in the tube. Each sample was weighed accurately, and associated radioactivity was counted in a gamma counter. The percentage injected activities per gram (%IA/g) in each blood sample at each time were determined, and the data were plotted as a function of the time interval to obtain the blood clearance curve of the radiopharmaceuticals."}, "[3]": {"assay": "in vitro", "type": "in vitro ADME", "conditions": "rat, serum", "description": "as §1, §2"}}, "note": "Where a SMILES comes first, the peptide text is derived from it."}
{"smiles": "CCCC[C@H](NC(=O)[C@@H](Cc1ccc(O)cc1)NC(=O)[C@H](Cc1c[nH]cn1)NC(=O)[C@H]1CCCN1C(=O)[C@@H](NC(=O)[C@H](C)NC(=O)[C@H](Cc1c[nH]c2ccccc12)NC(=O)[C@H](CCC(N)=O)NC(=O)CCCNC(=O)CN1CCNCCNCCNCC1)C(C)C)C(N)=O", "note": "[99mTc-BN4, ^99mTc-DOMA-GABA-[Pro^11Tyr^13Nle^14]-BN(7-14)NH2, metal not drawn] (HELM PEPTIDE1{[O=C(CN1CCNCCNCCNCC1)[*:2]].[O=C(CCCN[*:1])[*:2]].Q.W.A.V.[dP].H.[dY].[Nle].[am]}$$$$V2.0)", "values": [{"measurement": "remaining at 2 h", "setting": "[1]", "result": "95.5 ± 0.03", "unit": "%"}, {"measurement": "remaining at 4 h", "setting": "[1]", "result": "95 ± 0.07", "unit": "%"}, {"measurement": "remaining at 6 h", "setting": "[1]", "result": "93.5 ± 0.12", "unit": "%"}, {"measurement": "remaining at 8 h", "setting": "[1]", "result": "92.5 ± 0.2", "unit": "%"}, {"measurement": "remaining at 12 h", "setting": "[1]", "result": "90 ± 0.11", "unit": "%"}, {"measurement": "remaining at 24 h", "setting": "[1]", "result": "88 ± 0.14", "unit": "%"}, {"measurement": "t1/2 in blood", "setting": "[2]", "result": 30, "unit": "min"}, {"measurement": "remaining at 4 h", "setting": "[3]", "result": "97.6 ± 0.05", "unit": "%"}, {"measurement": "remaining at 6 h", "setting": "[3]", "result": "97 ± 0.18", "unit": "%"}, {"measurement": "remaining at 8 h", "setting": "[3]", "result": "96.4 ± 0.2", "unit": "%"}, {"measurement": "remaining at 12 h", "setting": "[3]", "result": "95.2 ± 0.05", "unit": "%"}, {"measurement": "remaining at 24 h", "setting": "[3]", "result": "93.3 ± 0.02", "unit": "%"}]}
